Source: patent US20250263440A1, “CD38-BINDING AGENTS AND USES THEREOF” (PeptiDream Inc., priority 2019, published 2025)
Where two headings read alike, the source gives them in different places. Starred links: 1 amine or outer side, 2 acyl side, 3 side chain; linkers in the order of their positions; H or OH if unused. Positions of bridges follow the written chain, without caps; N, C: chain ends. Non-standard residues stand in square brackets, D forms with d. Residues, ends and D or L forms follow the SMILES beside them. No end group written: not given here. F3G = 3-guanidinophenylalanine, N=C(N)Nc1cccc(C[C@H](N[*:1])C(=O)[*:2])c1; Bip = N[C@@H](Cc1ccc(-c2ccccc2)cc1)C(=O)O; Met(O2) = CS(=O)(=O)CC[C@H](N)C(=O)O; X4 = CCCCCCC[C@H](N[*:1])C(=O)[*:2]; NMeF = CN[C@@H](Cc1ccccc1)C(=O)O; hArg = N=C(N)NCCCC[C@H](N)C(=O)O; Ahp(2) = CCCCC[C@H](N)C(=O)O

Assays:
[1] = target: His-tagged CD38 (Homo sapiens, UniProt P28907); experiment: SPR assay (Biacore S200, Sensor Chip NTA, single-cycle kinetics) of SEQ ID NO.1 variants against His-tagged CD38; format: binding; settings: for kon / koff: SPR Biacore S200, NTA chip, His-tagged CD38; for kon: read-out: Ka (association rate constant); for koff: read-out: Kd (dissociation rate constant)
Protocol: SPR assay was performed using Biacore S200 (Cytiva: Former GE Healthcare).
After the equilibration of Series S Sensor Chip NTA (produced by Cytiva: Former GE Healthcare) with Running Buffer (10 mM HEPES pH7.4, 150 mM NaCl, 0.05% Tween 20), followed by injection of 350 mM EDTA at a flow rate of 10 L/min for 60 seconds and […] NiCl2 at a flow rate of 10 L/min for 60 seconds, then 3 mM EDTA at a flow rate of 10 L/min for 120 seconds, sequently, to wash the sensor chip.
(§1) EDC/NHS mixture was injected at a flow rate of […] for 7 minutes to thereby activate the functional groups on sensor chip. His-tagged CD38 in Running Buffer (10 mM HEPES pH7.4, 150 mM NaCl, 0.05% Tween 20) was injected immobilized to at a flow rate of […]. For 7 minutes to immobilize the CD38 on the substrate surfaces of the sensor chip. Then Ethanolamine was injected at a flow rate of […] for 7 minutes.
(§2) 1.0 M Ethanolamine(aq.) was injected at a flow rate of 10 L/min for 420 seconds for capping. 10 mM peptides (which were synthesised described above) in DMSO were diluted to obtain 10 uM with Running Buffer, and prepared 100 nM, 50 nM, 25 nM, 10 nM, 5 nM of each peptide's solutions (Peptide Samples).
(§3) Using these Peptide Samples, kinetics of peptides against His-tagged CD38 was measured. The method adopted for sample measurement was a single-cycle kinetics method. The analysis was conducted using the evaluation software 1.1 provided with Biacore S200. A DMSO correction curve obtained by solvent correction measurements was applied for the analysis. Kinetics fitting was done on the difference data obtained by subtracting the baseline data from sample measurement data.
KD values were calculated based on the association rate constant (ka) and dissociation rate constant (kd).

[2] = target: T1, His-tagged CD38 (human, UniProt P28907 43-300, limits assumed); experiment: SPR (Biacore S200), His-tagged CD38 immobilised, single-cycle kinetics
T1 construct: The order of CD38 and tag is not known; not shown: His tag
Protocol: as §1, §2, §3

[3] = target: T2, Recombinant human CD38 protein (R&D Systems) (human, UniProt P28907 43-300); experiment: ELISA
[4] = target: T2, Recombinant human CD38 protein (R&D …); experiment: ELISA; remark: listed apart in the source

## CCCCCCC[C@@H]1NC(=O)[C@H](Cc2ccc(-c3ccccc3)cc2)NC(=O)[C@H](CC(C)C)NC(=O)[C@H](C(C)C)NC(=O)[C@H](CCC(=O)O)NC(=O)[C@H](CC(=O)O)NC(=O)[C@H](Cc2c[nH]cn2)NC(=O)[C@H](Cc2ccc(O)cc2)NC(=O)[C@H](CCCCC)NC(=O)[C@H](CCCNC(=N)N)NC(=O)[C@H](C)NC(=O)CSC[C@@H](C(N)=O)NC(=O)[C@H](CC(=O)O)NC1=O [compound 23] ({CH2CO}-AR[Ahp(2)]YHDEVL[Bip][X4]DC-NH2; thioether N-13)
[1]
  kon: 820000 M⁻¹ s⁻¹
  koff: 0.0027 s⁻¹

## CCCCC[C@@H]1NC(=O)[C@H](CCCNC(=N)N)NC(=O)[C@H](C)NC(=O)CSC[C@@H](C(N)=O)NC(=O)[C@H](CC(=O)O)NC(=O)[C@H](CCCCC)NC(=O)[C@H](Cc2ccc(-c3ccccc3)cc2)NC(=O)[C@H]([C@@H](C)O)NC(=O)[C@H](C(C)C)NC(=O)CNC(=O)[C@H](CC(=O)O)NC(=O)[C@H](Cc2c[nH]cn2)NC(=O)[C@H](Cc2ccc(O)cc2)NC1=O [compound 7] ({CH2CO}-AR[Ahp(2)]YHDGVT[Bip][Ahp(2)]DC-NH2; thioether N-13)
[1]
  kon: 819000 M⁻¹ s⁻¹
  koff: 0.0535 s⁻¹

## CCCCC[C@@H]1NC(=O)[C@H](CCCNC(=N)N)NC(=O)[C@H](C)NC(=O)CSC[C@@H](C(N)=O)NC(=O)[C@H](CC(=O)O)NC(=O)[C@H](CCCCC)NC(=O)[C@H](Cc2ccc(-c3ccccc3)cc2)NC(=O)[C@H](CC(C)C)NC(=O)[C@H](C(C)C)NC(=O)[C@H](CCS(C)(=O)=O)NC(=O)[C@H](CC(=O)O)NC(=O)[C@H](Cc2c[nH]cn2)NC(=O)[C@H](Cc2ccc(O)cc2)NC1=O [compound 6] ({CH2CO}-AR[Ahp(2)]YHD[Met(O2)]VL[Bip][Ahp(2)]DC-NH2; thioether N-13)
[1]; SPR Biacore S200, His-tagged CD38, calculated from ka and kd
  Kd: 2.94 nM
[1]
  kon: 631000 M⁻¹ s⁻¹
  koff: 0.00186 s⁻¹

B1: Circular peptide having amino acid sequence represented by SEQ ID NO.26 (peptide)
peptide: ARXYHDEVLXXDC
modifications: not fully specified; Ahp at 3; Bph at 10; PhNva ((S)-2-amino-5-phenylpentanoic acid) at 11; circular peptide
[2]
  Kd: 26 nM

## {CH2CO}-AR[Ahp(2)]YHDEVL[Bip][Ahp(2)]AC (thioether N-13) [Peptide of SEQ ID NO.27]
[2]
  Kd: 4.99 nM

## {CH2CO}-AA[Ahp(2)]YHDGVL[Bip][Ahp(2)]DC (thioether N-13) [I-1 analogue with Ala at position 2 (A A Ahp Y H D G V L Bph Ahp D C)]
[3]
  Binding Assay (larger values indicate stronger binding): 0.6

## {CH2CO}-AR[Ahp(2)]YHAGVL[Bip][Ahp(2)]DC (thioether N-13) [I-1 analogue with Ala at position 6 (A R Ahp Y H A G V L Bph Ahp D C)]
[3]
  Binding Assay (larger values indicate stronger binding): 0.93

## {CH2CO}-AR[Ahp(2)]YHDGVL[Bip][Ahp(2)]AC (thioether N-13) [I-1 analogue with Ala at position 12 (A R Ahp Y H D G V L Bph Ahp A C)]
[3]
  Binding Assay (larger values indicate stronger binding): 1.79

## {CH2CO}-AR[Ahp(2)]YADGVL[Bip][Ahp(2)]DC (thioether N-13) [I-1 analogue with Ala at position 5 (A R Ahp Y A D G V L Bpb Ahp D C)]
[3]
  Binding Assay (larger values indicate stronger binding): 0.28

## {CH2CO}-AR[Ahp(2)]AHDGVL[Bip][Ahp(2)]DC (thioether N-13) [I-1 analogue with Ala at position 4 (A R Ahp A H D G V L Bph Ahp D C)]
[3]
  Binding Assay (larger values indicate stronger binding): 0.11

## {CH2CO}-AR[Ahp(2)]YHDGAL[Bip][Ahp(2)]DC (thioether N-13) [I-1 analogue with Ala at position 8 (A R Ahp Y H D G A L Bph Ahp D C)]
[3]
  Binding Assay (larger values indicate stronger binding): 0.3

## {CH2CO}-AR[Ahp(2)]YHDAVL[Bip][Ahp(2)]DC (thioether N-13) [I-1 analogue with Ala at position 7 (A R Ahp Y H D A V L Bpb Ahp D C)]
[3]
  Binding Assay (larger values indicate stronger binding): 1.49

## {CH2CO}-AR[Ahp(2)]YHDGVA[Bip][Ahp(2)]DC (thioether N-13) [I-1 analogue with Ala at position 9 (A R Ahp Y H D G V A Bph Ahp D C)]
[3]
  Binding Assay (larger values indicate stronger binding): 0.08

## {CH2CO}-ALH[NMeF]VLP[Bip]VAVC (thioether N-12) [I-2 analogue with Ala at position 10 (A L H MeF V L P Bph V A V C)]
[4]
  Binding Assay (larger values indicate stronger binding): 0.1

## {CH2CO}-ARAYHDGVL[Bip][Ahp(2)]DC (thioether N-13) [I-1 analogue with Ala at position 3 (A R A Y H D G V L Bph Ahp D C)]
[3]
  Binding Assay (larger values indicate stronger binding): 0.11

## {CH2CO}-ALH[NMeF]VLP[Bip]VWAC (thioether N-12) [I-2 analogue with Ala at position 11 (A L H MeF V L P Bph V W A C)]
[4]
  Binding Assay (larger values indicate stronger binding): 0.41

B2: Circular peptide having amino acid sequence represented by SEQ ID NO.12 (peptide)
peptide: {CH2CO}-AR[Ahp(2)]YHD[hArg]VL[Bip][Ahp(2)]DC
modifications: thioether N-13; not fully specified; also: circular peptide, closure not given here
[2]
  Kd: 2.29 nM

## {CH2CO}-AR[Ahp(2)]YHDGVL[Bip]ADC (thioether N-13) [I-1 analogue with Ala at position 11 (A R Ahp Y H D G V L Bph A D C)]
[3]
  Binding Assay (larger values indicate stronger binding): 0.2

## {CH2CO}-ALH[NMeF]VAP[Bip]VWVC (thioether N-12) [I-2 analogue with Ala at position 6 (A L H MeF V A P Bph V W V C)]
[4]
  Binding Assay (larger values indicate stronger binding): 0.09

B3: Circular peptide having amino acid sequence represented by SEQ ID NO.23 (peptide)
peptide: ARXYHDEVLXXDC
modifications: not fully specified; Ahp at 3; Bph at 10; Ano ((S)-2-aminononanoic acid) at 11; circular peptide
[2]
  Kd: 3.34 nM

## {CH2CO}-ALH[NMeF]ALP[Bip]VWVC (thioether N-12) [I-2 analogue with Ala at position 5 (A L H MeF A L P Bph V W V C)]
[4]
  Binding Assay (larger values indicate stronger binding): 0.47

B4: Circular peptide having amino acid sequence represented by SEQ ID NO.25 (peptide)
peptide: ARXYHDEVLXXDC
modifications: not fully specified; Ahp at 3; Bph at 10; PhNle ((S)-2-amino-6-phenylhexanoic acid) at 11; circular peptide
[2]
  Kd: 1.38 nM

## {CH2CO}-ALH[NMeF]VLPAVWVC (thioether N-12; also: structure as I-2) [I-2 analogue with Ala at position 8 (A L H MeF V L P A V W V C)]
[4]
  Binding Assay (larger values indicate stronger binding): 0.09

## {CH2CO}-ALH[NMeF]VLP[Bip]AWVC (thioether N-12) [I-2 analogue with Ala at position 9 (A L H MeF V L P Bph A W V C)]
[4]
  Binding Assay (larger values indicate stronger binding): 0.12

B5: Circular peptide having amino acid sequence represented by SEQ ID NO.29 (peptide)
peptide: {CH2CO}-A[F3G][Ahp(2)]YHDEVL[Bip][Ahp(2)]DC
modifications: thioether N-13; not fully specified; also: circular peptide, closure not given here
[2]
  Kd: 2 nM

## {CH2CO}-ALHAVLP[Bip]VWVC (thioether N-12) [I-2 analogue with Ala at position 4 (A L H A V L P Bph V W V C)]
[4]
  Binding Assay (larger values indicate stronger binding): 0.1

## {CH2CO}-AAH[NMeF]VLP[Bip]VWVC (thioether N-12) [I-2 analogue with Ala at position 2 (A A H MeF V L P Bph V W V C)]
[4]
  Binding Assay (larger values indicate stronger binding): 0.84

B6: Circular peptide having amino acid sequence represented by SEQ ID NO.14 (peptide)
peptide: {CH2CO}-AR[Ahp(2)]YHDEV[Met(O2)][Bip][Ahp(2)]DC
modifications: thioether N-13; not fully specified; also: circular peptide, closure not given here
[2]
  Kd: 38 nM

## {CH2CO}-ALH[NMeF]VLA[Bip]VWVC (thioether N-12) [I-2 analogue with Ala at position 7 (A L H MeF V L A Bph V W V C)]
[4]
  Binding Assay (larger values indicate stronger binding): 0.11

B7: Circular peptide having amino acid sequence represented by SEQ ID NO.13 (peptide)
peptide: {CH2CO}-AR[Ahp(2)]YHDQV[Met(O2)][Bip][Ahp(2)]DC
modifications: thioether N-13; not fully specified; also: circular peptide, closure not given here
[2]
  Kd: 22.2 nM

B8: Circular peptide having amino acid sequence represented by SEQ ID NO.24 (peptide)
peptide: ARXYHDEVLXXDC
modifications: not fully specified; Ahp at 3; Bph at 10; Ado ((S)-2-aminoundecanoic acid) at 11; circular peptide
[2]
  Kd: 3.53 nM

## {CH2CO}-AR[Ahp(2)]YHDGVLA[Ahp(2)]DC (thioether N-13) [I-1 analogue with Ala at position 10 (A R Ahp Y H D G V L A Ahp D C)]
[3]
  Binding Assay (larger values indicate stronger binding): 0.09

## {CH2CO}-ALA[NMeF]VLP[Bip]VWVC (thioether N-12) [I-2 analogue with Ala at position 3 (A L A MeF V L P Bph V W V C)]
[4]
  Binding Assay (larger values indicate stronger binding): 0.37

## {CH2CO}-AR[Ahp(2)]YHDGV[Met(O2)][Bip][Ahp(2)]DC (thioether N-13; not fully specified) [Circular peptide having amino acid sequence represented by SEQ ID NO.9]
[2]
  Kd: 9.44 nM
